The source of these data is patent US20030166587.

The series deals with T1, IKK-phosphorylated IκBα in the IκBα/NF-κB complex.
T1 chain: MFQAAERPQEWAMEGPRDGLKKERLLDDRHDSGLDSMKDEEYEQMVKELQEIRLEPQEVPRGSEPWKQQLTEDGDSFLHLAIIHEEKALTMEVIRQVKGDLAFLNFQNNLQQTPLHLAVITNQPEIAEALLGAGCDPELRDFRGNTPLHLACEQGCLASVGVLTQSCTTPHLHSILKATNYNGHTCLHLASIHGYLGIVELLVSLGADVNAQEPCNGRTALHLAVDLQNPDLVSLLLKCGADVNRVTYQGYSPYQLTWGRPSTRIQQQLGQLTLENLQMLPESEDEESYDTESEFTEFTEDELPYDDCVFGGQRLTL

B1: human β-TrCP, FLAG-tagged (protein)
chain: MDPAEAVLQEKALKFMNSSEREDCNNGEPPRKIIPEKNSLRQTYNSCARLCLNQETVCLASTAMKTENCVAKTKLANGTSSMIVPKQRKLSASYEKEKELCVKYFEQWSESDQVEFVEHLISQMCHYQHGHINSYLKPMLQRDFITALPARGLDHIAENILSYLDAKSLCAAELVCKEWYRVTSDGMLWKKLIERMVRTDSLWRGLAERRGWGQYLFKNKPPDGNAPPNSFYRALYPKIIQDIETIESNWRCGRHSLQRIHCRSETSKGVYCLQYDDQKIVSGLRDNTIKIWDKNTLECKRILTGHTGSVLCLQYDERVIITGSSDSTVRVWDVNTGEMLNTLIHHCEAVLHLRFNNGMMVTCSKDRSIAVWDMASPTDITLRRVLVGHRAAVNVVDFDDKYIVSASGDRTIKVWNTSTCEFVRTLNGHKRGIACLQYRDRLVVSGSSDNTIRLWDIECGACLRVLEGHEELVRCIRFDNKRIVSGAYDGKIKVWDLVAALDPRAPAGTLCLRTLVEHSGRVFRLQFDEFQIVSSSHDDTILIWDFLNDPAAQAEPPRSPSRTYTYISR
Regarding B1, the “in vitro ubiquitination of pIκBα in the presence of E1 and E2 (UBC5C)” value (“in vitro ubiquitination of pIκBα” for short) is reported as “the wild type β-TrCP proteins facilitated the ubiquitination of pIκBα, but not of the non-phosphorylated IκBα”.

B2: mouse β-TrCP, FLAG-tagged (protein)
chain: MDPAEAVLQEKALKFMNSSEREDCNNGEPPRKIIPEKNSLRQTYNSCARLCINQETVCLTSTAMKTENCVAKAKLANGTSSMIVPKQRKLSASYEKEKELCVKYFEQWSESDQVEFVEHLISQMCHYQHGHINSYLKPMLQRDFITALPARGLDHIAENILSYLDAKSLCAAELVCKEWYRVTSDGMLWKKLIERMVRTDSLWRGLAERRGWGQYLFKNKPPDENAPPNSFYRALYPKIIQDIETIESNWRCGRHSLQRIHCRSETSKGVYCLQYDDQKIVSGLRDNTIKIWDKSTLECKRILTGHTGSVLCLQYDERVIITGSSDSTVRVWDVNAGEMLNTLIHHCEAVLHLRFNNGMMVTCSKDRSIAVWDMASPTDITLRRVLVGHRAAVNVVDFDDKYIVSASGDRTIKVWNTSTCEFVRTLNGHKRGIACLQYRDRLVVSGSSDNTIRLWDIECGACLRVLEGHEELVRCIRFDNKRIVSGAYDGKIKVWDLMAALDPRAPAGTLCLRTLVEHSGRVFRLQFDEFQIVSSSHDDTILIWDFLNDPAAHAEPPRSPSRTYTYISR
With B2, the “in vitro ubiquitination of pIκBα” value is on record as “the wild type β-TrCP proteins facilitated the ubiquitination of pIκBα, but not of the non-phosphorylated IκBα”.

B3: human β-TrCP with a deletion of the F box region residues 122-168, FLAG-tagged (protein)
chain: MDPAEAVLQEKALKFMNSSEREDCNNGEPPRKIIPEKNSLRQTYNSCARLCLNQETVCLASTAMKTENCVAKTKLANGTSSMIVPKQRKLSASYEKEKELCVKYFEQWSESDQVEFVEHLISQMCHYQHGHINSYLKPMLQRDFITERMVRTDSLWRGLAERRGWGQYLFKNKPPDGNAPPNSFYRALYPKIIQDIETIESNWRCGRHSLQRIHCRSETSKGVYCLQYDDQKIVSGLRDNTIKIWDKNTLECKRILTGHTGSVLCLQYDERVIITGSSDSTVRVWDVNTGEMLNTLIHHCEAVLHLRFNNGMMVTCSKDRSIAVWDMASPTDITLRRVLVGHRAAVNVVDFDDKYIVSASGDRTIKVWNTSTCEFVRTLNGHKRGIACLQYRDRLVVSGSSDNTIRLWDIECGACLRVLEGHEELVRCIRFDNKRIVSGAYDGKIKVWDLVAALDPRAPAGTLCLRTLVEHSGRVFRLQFDEFQIVSSSHDDTILIWDFLNDPAAQAEPPRSPSRTYTYISR
Consider B3, for which the “in vitro ubiquitination of pIκBα” value is “failed to promote ubiquitination (lanes 7 and 8), in spite of its binding capacity”.
